# Target: human CD4 on cells (human) (UniProt P01730)
# Experiment: cell-based or functional assay
substance,measurement,value
"CE9γ4λK, chimeric anti-CD4 antibody with human gamma 4 heavy chain constant domain and human kappa light chain constant region",MLR IL-2 Production (IC50),0.02 µg/mL
same,MLR Proliferation (IC50),0.02 µg/mL

# — patent publication US7452534
